The source of these data is PMC6364316 (Vaccine, 2018).

The target of assay [1] is T1, gp120 (HIV-1, strain  for this …, UniProt Q75760). Kind of assay: ELISA. In general terms: ELISA stands for enzyme-linked immunosorbent assay.
In assay [2] the target is T1, gp120. Kind of assay: SPR. In general terms: In SPR one partner is held on a chip, and binding of the other changes the refractive index at the surface.

B1: IgG b12 (antibody, V domains shown)
VH: QVQLVQSGAEVKKPGASVKVSCQASGYRFSNFVIHWVRQAPGQRFEWMGWINPYNGNKEFSAKFQDRVTFTADTSANTAYMELRSLRSADTAVYYCARVGPYSWDDSPQDNYYMDVWGKGTTVIVSS
VL: EIVLTQSPGTLSLSPGERATFSCRSSHSIRSRRVAWYQHKPGQAPRLVIHGVSNRASGISDRFSGSGSGTDFTLTITRVEPEDFALYYCQVYGASSYTFGQGTKLERK
Consider B1, for which, in assay [1], the “10 times EC50” value stood at 1 µg/mL. Further, in assay [2], binding was characterised by a dissociation constant (Kd) of 36 ± 2 nM and the koff turned out to be 0.0052 s⁻¹.

As a reminder, the Kd is the concentration at which binding is half-saturated. Higher therefore signals a looser complex. The term koff denotes the first-order rate constant of dissociation.
